According to patent US20200190204A1:

Target: hBAFF-R-GFP fusion protein on mouse fibroblast L cells (clone D2C) (human) (UniProt Q96RJ3)
Test: cell ELISA of hybridoma supernatant, anti-mouse IgG-HRP; same clone on parental L cell: 0.102

OD 450 nm on (h)BAFF-R-expressing cells: 1.07 OD 450 nm
B1: mouse mAb Clone 55 (hybridoma) (antibody, V domains shown)
VH: QVTLKESGPGILKPSQTLSLTCSFSGFSLSTSGMGVGWIRQPSGKGLEWLAHIWWDDDKYYNSSLKSHLTISKDTSRNQVFLKITSVDTADTATYYCARSFGYGLDYWGQGTTLTVSS
VL: DIQMTQTTSSLSASLGDRVTISCSASQDISNYLNWYQQKPDGTVKLLIYYTSSLHSGVPSRFSGSGSGTDYSLTISSLEPEDIATYYCHQFSELPWTFGGGTKLEIKR
